In this test the target is PCSK9Δhelix (human) (UniProt Q8NBP7). Description: TR-FRET competition, Ab20 as competitor.

Square brackets hold non-standard residues; d marks the D form. * marks the point of attachment. hArg = N=C(N)NCCCC[C@H](N)C(=O)O; Pentanoyl = CCCCC(=O)*

Chain of PCSK9Δhelix (human) (Q8NBP7 31-152 limits assumed, stated change not applied, chain 1 of 2): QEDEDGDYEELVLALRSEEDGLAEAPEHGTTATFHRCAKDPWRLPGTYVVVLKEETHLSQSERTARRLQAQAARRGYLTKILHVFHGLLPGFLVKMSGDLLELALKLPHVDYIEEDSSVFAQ
Chain of PCSK9Δhelix (human) (Q8NBP7 other isoform, or with tags, fused parts or gaps mutant limits assumed, chain 2 of 2): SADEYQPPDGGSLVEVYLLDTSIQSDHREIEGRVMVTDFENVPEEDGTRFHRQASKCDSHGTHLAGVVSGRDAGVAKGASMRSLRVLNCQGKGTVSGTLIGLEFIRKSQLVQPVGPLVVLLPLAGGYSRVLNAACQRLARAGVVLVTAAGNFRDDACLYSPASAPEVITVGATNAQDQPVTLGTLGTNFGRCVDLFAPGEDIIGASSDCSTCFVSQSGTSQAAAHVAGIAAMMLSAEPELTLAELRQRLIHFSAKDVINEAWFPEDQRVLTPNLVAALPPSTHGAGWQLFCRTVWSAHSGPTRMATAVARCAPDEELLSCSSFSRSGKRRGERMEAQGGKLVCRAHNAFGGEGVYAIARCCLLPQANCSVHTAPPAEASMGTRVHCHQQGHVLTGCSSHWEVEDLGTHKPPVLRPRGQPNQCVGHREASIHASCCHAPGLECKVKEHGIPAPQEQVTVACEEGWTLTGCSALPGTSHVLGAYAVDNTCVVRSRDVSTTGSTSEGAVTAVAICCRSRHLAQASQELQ

B1: Compound 111 (peptide)
peptide: Pentanoyl-WNLVRIGLLR-NH2
SMILES: CCCCC(=O)N[C@@H](Cc1c[nH]c2ccccc12)C(=O)N[C@@H](CC(N)=O)C(=O)N[C@@H](CC(C)C)C(=O)N[C@H](C(=O)N[C@@H](CCCNC(=N)N)C(=O)N[C@H](C(=O)NCC(=O)N[C@@H](CC(C)C)C(=O)N[C@@H](CC(C)C)C(=O)N[C@@H](CCCNC(=N)N)C(N)=O)[C@@H](C)CC)C(C)C
The term IC50 denotes the concentration needed to halve the response being measured. Higher therefore signals lower potency. As to B1, the IC50 is less than 10 µM.

B2: Compound 118 (peptide)
peptide: Pentanoyl-WNLV[hArg]IGLTR-NH2
SMILES: CCCCC(=O)N[C@@H](Cc1c[nH]c2ccccc12)C(=O)N[C@@H](CC(N)=O)C(=O)N[C@@H](CC(C)C)C(=O)N[C@H](C(=O)N[C@@H](CCCCNC(=N)N)C(=O)N[C@H](C(=O)NCC(=O)N[C@@H](CC(C)C)C(=O)N[C@H](C(=O)N[C@@H](CCCNC(=N)N)C(N)=O)[C@@H](C)O)[C@@H](C)CC)C(C)C
As for B2, the fold increase of inhibition against the arginine peptide (Compound 112) turned out to be 5 fold.

The record behind these values is patent publication US20190177366A1.
